Assay results as given in patent publication CN109750002A.

Tests used:
[1] = target: 人BTN3A3 (Butyrophilin subfamily 3 member A3), membrane form on cells (BT474-BTN3A3 overexpressing cells) (human) (UniProt O00478); assay: adhesion assay by flow cytometry on BT474-BTN3A3 cells, with control human IgG; LSECtin-positive ZSG-positive cells / ZSG-positive cells
[2] = target: 人BTN3A3 (Butyrophilin subfamily 3 member A3), membrane form on cells (BT474-BTN3A3 overexpressing cells) (human) (UniProt O00478); assay: adhesion assay by flow cytometry on BT474-BTN3A3 cells, with 5E08 mixed 1:1 (molar) with LSECtin as blocker

Chain of UniProt O00478 (O00478 30-584): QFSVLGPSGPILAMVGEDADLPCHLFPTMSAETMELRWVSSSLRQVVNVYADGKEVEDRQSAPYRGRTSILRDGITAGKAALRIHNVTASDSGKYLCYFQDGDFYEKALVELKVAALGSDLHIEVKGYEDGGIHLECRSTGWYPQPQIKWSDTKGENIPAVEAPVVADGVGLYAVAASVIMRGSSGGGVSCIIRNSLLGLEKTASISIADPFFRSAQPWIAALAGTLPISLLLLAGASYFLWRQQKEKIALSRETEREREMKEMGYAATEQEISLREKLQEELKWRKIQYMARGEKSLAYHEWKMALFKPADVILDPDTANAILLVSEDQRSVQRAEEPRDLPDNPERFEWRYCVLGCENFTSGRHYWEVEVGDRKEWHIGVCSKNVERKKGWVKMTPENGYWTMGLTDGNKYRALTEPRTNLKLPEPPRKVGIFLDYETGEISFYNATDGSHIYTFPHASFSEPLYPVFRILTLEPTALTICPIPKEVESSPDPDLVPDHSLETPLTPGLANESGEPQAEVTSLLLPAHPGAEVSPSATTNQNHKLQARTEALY

LSECtin粘附率 [1]: 16.1% | LSECtin粘附率 [2]: 1.4%
B1: LSECtin蛋白 (Liver Sinusoidal Endothelial Cells lectin) (ligand, UniProt Q6UXB4 53-293, looked up)
chain: LSKASTERAALLDGHDLLRTNASKQTAALGALKEEVGDCHSCCSGTQAQLQTTRAELGEAQAKLMEQESALRELRERVTQGLAEAGRGREDVRTELFRALEAVRLQNNSCEPCPTSWLSFEGSCYFFSVPKTTWAAAQDHCADASAHLVIVGGLDEQGFLTRNTRGRGYWLGLRAVRHLGKVQGYQWVDGVSLSFSHWNQGEPNDAWGRENCVMMLHTGLWNDAPCDSEKDGWICEKRHNC
